Data as given in the nanobody polyreactivity screen of Harvey et al. (2022).

Test: yeast display, Sf9 membrane polyspecificity reagent, FACS + sequencing; frameworks hold sequencing errors
How it was run: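 Sorting gates, low and high (top ~1%), were placed on anti-HA fluorescence to track expression and on streptavidin fluorescence to track reagent binding. A clone's polyreactivity label is taken from the gate it came out of. The reagent was 10% biotinylated, detergent-solubilized Sf9 membrane, applied for 1 hour at 4 °C to galactose-induced yeast display cells.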
For “QVQLVESGGGLVQAGGSLRVSCAASGSTFPYYTMGWYRQAPGKERELVDVMTIRGGSTYYAHSVNGRCTHSRDNAKNTVNLQMNSLKPEDTAVNYCAPTGQLQGWYDMYYWGQGTQVTVSS”, the “polyreactivity (PSR sort gate)” value was “low polyreactivity”.
With “QVQLVESGGGLVQAGGSLRVSCAASGSTFVRNAMGGYRQAPGKETELVAFISTSGTRTHYADSVKGRFTISRDNAKNTVYFQMNSLKPEDTAVYYCNRRVYGIVTRDYWGQGTQVTVSS” the “polyreactivity (PSR sort gate)” value was “high polyreactivity”.
In the case of “QVQLVESGGGLVQAGGSLRVSCAASGYTFVIYAMGWYRQAPGKERELVAAITTIGGRTYYADSVKGRFTISRDNAKNTVYLQMYSLKPEDTAVYYCATAAVTPVWYDYWGQGTQVTVSS”, the “polyreactivity (PSR sort gate)” value is reported as “low polyreactivity”.
With “QVQLVESGGGLVQAGGSLRVSSAASGRIFYLYVMAWYRQAPGKERELVAGITGSGGNTYYADSVKGRCTISRDNAKNTVDLQMNSLKPEDTAVYFCNDRFRARPRMGYWGQATQVTVSS” the “polyreactivity (PSR sort gate)” value was “high polyreactivity”.
In the case of “QVQLVESGGGLVQAGGSLSISCAASGLTFSYYAMGWYRQAPGKERELGAAIAGRTGRPYYADSVKGRFTISRDNAKNTVYLQMNSLKPEDTAVFYSAAGYTFSRYDDDYWGQGTQVTVSS”, the “polyreactivity (PSR sort gate)” value is reported as “low polyreactivity”.
For “QVQLVESGGGLVQAGGSLSISCAASGRNFGYYTMGWYRQAPGKERELGAAITSGGRTNYADSVKGRFTISRDNAKNTVYLQMNSLKPEDTAVYYCNARRDSTRRGTWYEYWGQGTQVTVSS”, the “polyreactivity (PSR sort gate)” value was “high polyreactivity”.
With “QVQLVESGGGLVQAGGSLSLICAASGGIIRYKAMGWYRQAPGKERELVAAISSGGNTNYADSVKGRFTISRDNAKNTVNLQMNSLKPEDTAVYYSAKAAPWRVYYHKAYGYDYWGQGPQVTVSS” the “polyreactivity (PSR sort gate)” value was “high polyreactivity”.
For “QVQLVESGGGLVQAGGSLSLICAASGRTSVVNAMGWYRKAPGKERELVAAITSGGSTHYADSVKGRFTISRDNAKNTVYLQMNSLKPEDTAVYYCTKRGHPARLGYYYWGQGTQVTVSS”, the “polyreactivity (PSR sort gate)” value was “low polyreactivity”.
With “QVQLVESGGGLVQAGGSLSLICAASGSTITYNAMGWYRQAPGKETELVAAIDWDGDTTYYADSVKGRFTISRDNAKNTVYLQMNSLKPEDTAVYYCAAEFYSLGKAIYEYWGQGTQVTVSS” the “polyreactivity (PSR sort gate)” value was “high polyreactivity”.
In the case of “QVQLVESGGGLVQAGGSLSLRCAASGRIFTVYAMVWYRPAPGKEMELVAAISKRDGSTSYADSVKGRFTISRDNAKNTVYLQMNSLKPEDTAVYYCNARNHVQVLFRRDYWGQGTQVTVSS”, the “polyreactivity (PSR sort gate)” value is reported as “low polyreactivity”.
With “QVQLVESGGGLVQAGGSLSLSCAASGATFVRNAMGWYRQAPGKERELVAVISFRGGRTYYADSVKGRFTISRDNAKNTVYLQMNSLNPEDTAVYYCAKDRVASGVISSVDSWGQGTLVTVSS” the “polyreactivity (PSR sort gate)” value was “low polyreactivity”.
In the case of “QVQLVESGGGLVQAGGSLSLSCAASGFNFGVNTRGWDRQAPGKERELVAAITGSGSSTDYADSVKGRFTISRDNAKNPVYLQMHRLKPEDTAVYYCAASYYSNYPTYLRYYDWGQGTQVTVSS”, the “polyreactivity (PSR sort gate)” value is reported as “high polyreactivity”.
With “QVQLVESGGGLVQAGGSLSLSCAASGIFSRYAMGWYRQAPGKERELVAAISSGGSTYYAESVKGRFTISRDNAKNTVYLQMNSLKPEDTAVYYCSVKQRDKFAGGRNDYWGQGTQVTVSS” the “polyreactivity (PSR sort gate)” value was “high polyreactivity”.
In the case of “QVQLVESGGGLVQAGGSLSLSCAASGIIFGLYTMGWYRQAPGKERELVAAISDSGGRTYYADSVKGRFTISRDNAKNTVYLQMNSLKPEETAVYYCAAEFWYVWEYNYWGQCTQVTVSS”, the “polyreactivity (PSR sort gate)” value is reported as “high polyreactivity”.
For “QVQLVESGGGLVQAGGSLSLSCAASGINFWRYAMGWYRPAPGKERELVAGITSRGGSTYYADSVKGRFTISRDNAKNTVYLQMNSLKPEDTAVYYCNADWYGQLWWGVDYWGQGTQVTVSS”, the “polyreactivity (PSR sort gate)” value was “high polyreactivity”.
With “QVQLVESGGGLVQAGGSLSLSCAASGLILRSYAMGWYRQAPWKERELVAAISGSGGRTYYADSVKGRFTISRDNAKNTVYLLMNSLKPEDTAVYYCAAGWTYRQNGYWGQGTQVTVSS” the “polyreactivity (PSR sort gate)” value was “high polyreactivity”.
In the case of “QVQLVESGGGLVQAGGSLSLSCAASGLTFPKYAMGWYRQAPGKERELVDRISYSGASTYYADSVKGRFTISRDNAKNTVYLQMNSLKPEDTAVYYCAARIYRVYYVDFAPYYYWGQGTQVTVSS”, the “polyreactivity (PSR sort gate)” value is reported as “high polyreactivity”.
For “QVQLVESGGGLVQAGGSLSLSCAASGLTFYNYAMGWYRQAPGTERELVAAISRSGRTYYADSVKGRFTISRDNAKNTVDLQMNSLKPEDTAVYYCAAGHGGDPGSGYWGQGTEVTVSS”, the “polyreactivity (PSR sort gate)” value was “high polyreactivity”.
In the case of “QVQLVESGGGLVQAGGSLSLSCAASGNIFSYNAMGWYRQAPGKERELVAAITWAGSTYADSVKGRFTISRDNAKNTVFLQRNSLKPEDTAVYYCNAANDSGYDYWGQGTQVTVSS”, the “polyreactivity (PSR sort gate)” value is reported as “low polyreactivity”.
In the case of “QVQLVESGGGLVQAGGSLSLSCAASGRIFYVNTMGWYRQAPGKERELVATISSAASTNYADSVKGRFTISRDNAKNTVYLQMNSLKPEDTAVYYCNAAFYKEYYYWGQGTQVTVSS”, the “polyreactivity (PSR sort gate)” value is reported as “low polyreactivity”.
With “QVQLVESGGGLVQAGGSLSLSCAASGRITCGYAMGWYRQAPGKERELVAVINFNGGRTYYADSVKGRFTISRDNAKNTVYLQMNSLKPEDTAVYYCAADSGYEYDYWGQGTQVTVSS” the “polyreactivity (PSR sort gate)” value was “low polyreactivity”.
For “QVQLVESGGGLVQAGGSLSLSCAASGRITRFNAMGWYRQAPGKERELVAAITRGASTYYADSVKGRFTISRDNAKNSVYLQMNRLKQEDTAVYYCAAAPRYSWTSVARYDYWGQGTQVTVSS”, the “polyreactivity (PSR sort gate)” value was “high polyreactivity”.
In the case of “QVQLVESGGGLVQAGGSLSLSCAASGRIYYYAMGWYRQAPGKERELVAAITGRGGSTYYADSVKGRFTISRDNAKNRVYLQMNSLKPEDTAVYYCARAGCPRHDWGQGTQVTVSS”, the “polyreactivity (PSR sort gate)” value is reported as “high polyreactivity”.
With “QVQLVESGGGLVQAGGSLSLSCAASGRLFKIDAMGWYRQAPGKERELVATISSGGRTNYADSVKGRFTISRDNAKNSVYLQMNSLKPEVTAVYYCNAGARVLYETESFDYWGQGIQVTVSS” the “polyreactivity (PSR sort gate)” value was “low polyreactivity”.
In the case of “QVQLVESGGGLVQAGGSLSLSCAASGRTFAPYAMGWYRQAPGKEREFVAGITWSSSSTYADSVKGRFTISRDNAKITVYFQMNSLKPEDPAVYYCAASHAKGGNRHYYWGQGTQVTVSS”, the “polyreactivity (PSR sort gate)” value is reported as “high polyreactivity”.
In the case of “QVQLVESGGGLVQAGGSLSLSCAASGRTFVPYAMGWYRQAPGKERELVADITDGDGSTYADSVKGRFTISRDNAKNTVYLQMNSLKPEYTAVYYCAAQSRRLVTRWPVTFGYWGQGTQVTVSS”, the “polyreactivity (PSR sort gate)” value is reported as “low polyreactivity”.
For “QVQLVESGGGLVQAGGSLSLSCAASGRTFWYKDMGWYRQAPGKERELVAVISSGAITFYADSVKGRFTISRDNAKNTVYLQMNSLNPEDTAVYYCAARSYLSLIDYWGQGTLVTVSS”, the “polyreactivity (PSR sort gate)” value was “high polyreactivity”.
In the case of “QVQLVESGGGLVQAGGSLSLSCAASGSIFRGNAMGWYRQAPGKERELVAANSYSSGTTYYADSVKGRFTISRDNAKNTVYFQMNSLKPEDTAVYYCATRYYRGYVRGTHHVGGYYYRGQGTQVTVSS”, the “polyreactivity (PSR sort gate)” value is reported as “low polyreactivity”.
With “QVQLVESGGGLVQAGGSLSLSCAASGSIFRSYAMGWYRQAPGKERELVAAITNGGSTYYADSVKGRFTISRDNAKNTVYLQMNSLKPEDTAVYYCAAARYTYWFYLVKKTGYYWGQGTQVTVSS” the “polyreactivity (PSR sort gate)” value was “high polyreactivity”.
For “QVQLVESGGGLVQAGGSLSLSCAASGSIFSYYDMGWYIQAPGKERELVAGISRGGSTNYADSVKGRFTISRDNAKNTVYLQMNSLKPEDPAVYYCNADYIFWLTLFDYWGQGTQVTVSS”, the “polyreactivity (PSR sort gate)” value was “low polyreactivity”.
With “QVQLVESGGGLVQAGGSLSLSCAASGSILGYYAMGWYRQAPGKERELVAAISGRGGSTYYADSVKGRFTISRDNAKNPVYLQMNSLKPEDTAVYYCAKRSVWRGWGQGTQVTVSS” the “polyreactivity (PSR sort gate)” value was “high polyreactivity”.
In the case of “QVQLVESGGGLVQAGGSLSLSCAASGSILYFNAMGWYRQAPGKERELVAAISRSGGSTYYADSVKGRFTISRDNAKNTVYIQMNSLKPEDTAVYSCAASYTVYYWGQGTQVTVTS”, the “polyreactivity (PSR sort gate)” value is reported as “high polyreactivity”.
With “QVQLVESGGGLVQAGGSLSLSCAASGSISYRYAMGWYRQAPGKERELVAAITSGGRTYYADSVKGRFTISRDNAKYTVYLQMNSLKPEDTAVYYCAKSKPVGPYYYWGQGTQVTVSS” the “polyreactivity (PSR sort gate)” value was “high polyreactivity”.
For “QVQLVESGGGLVQAGGSLSLSCAASGSLFRPNAMGWYRQAPGKERELVAAITWSGDSTYYADSVKGRFTISRDNAKNTVYLQMNSLKPEATAVYYCAADFTYQGSSANDYWGQGTQVTVSS”, the “polyreactivity (PSR sort gate)” value was “low polyreactivity”.
For “QVQLVESGGGLVQAGGSLSLSCAASGSNFNVYVMGWYRQAPGKERELVAAITYRGASTYYADSVKGRFTFSRDNAKNTVYLQMNSLKPEDTAVYYCAARYGYRSVYRSYNSRPYDYWGQGTQVTVSS”, the “polyreactivity (PSR sort gate)” value was “high polyreactivity”.
With “QVQLVESGGGLVQAGGSLSLSCAASGSTFAYYAMGGYRQAPGKERELVAGITWTGGSTYYADSVKGRFTISRDNAKNTVYLQMNSLKPEDTAVYYCAVTYPYGYEYDHWGQGTQVTVSS” the “polyreactivity (PSR sort gate)” value was “low polyreactivity”.
For “QVQLVESGGGLVQAGGSLSLSCAASGSTFTEYAMGWDRQAPGKERELVAGISSDGSTKYADSVKGRFTISRDNAMNTVYLQMNSLKTEDTAVYYCYIVQSYAKYDYWGQGTQVTVSS”, the “polyreactivity (PSR sort gate)” value was “low polyreactivity”.
With “QVQLVESGGGLVQAGGSLSLSCAASGSTFTYYDMGWYRQAPGKERELVAAISSSGGRTYYSDSVKGRFTISRDNAKNTVYLQMNSLKPEDTAVYYCARVVRPTDGDYWGQGTQVTVSS” the “polyreactivity (PSR sort gate)” value was “high polyreactivity”.
For “QVQLVESGGGLVQAGGSLSLSCAASGSTFVPYAMGWYRQAPGKERELVAAISSTGGSTYYADSVKGRFTISRDNAKNTVYLQMNSLKAEDTAVYYCNALAKIRYGQINKGYYWGQGTQVTVSS”, the “polyreactivity (PSR sort gate)” value was “high polyreactivity”.
In the case of “QVQLVESGGGLVQAGGSLSLSCAASGYIFLVYAMGWYRQAPGKERELVASITRGGGTTYYADSVKGRFTISRDNAKNTVYLLMNSLKREDTAVYYCAADLYSRGHRWYGYWGQGTQVTVSS”, the “polyreactivity (PSR sort gate)” value is reported as “high polyreactivity”.
With “QVQLVESGGGLVQAGGSLSLSCAASGYTLYANAMGWYRQAPGKERELVAAIRSGGSTNYADSVKGRFTISRDNAKNTVYLQMNSMKPEDTAVYYCAKDPYQDFLYLRYYGYYYWGQGTQVTVSS” the “polyreactivity (PSR sort gate)” value was “low polyreactivity”.
With “QVQLVESGGGLVQAGGSLSLSCPASGRTFSTNAMGWYRQAPGKEREMVAAISARGGSTYYADSVKGRFTISRDNAKNTVYLQMNSLKPEDTAVEYCALRPGRYSYAFDFWGQGTQVTVSS” the “polyreactivity (PSR sort gate)” value was “high polyreactivity”.
For “QVQLVESGGGLVQAGGSLSLSSAASGRPFIRNAMGWSRQAAGKERELVAGINSGGITNYADSVKGRFTISRDNAKNTVYLQMNSLKPVDTAFYYCNARQVLYGLYLRAYPYEYWGQGTQVTVSS”, the “polyreactivity (PSR sort gate)” value was “low polyreactivity”.
